In the supplement of paper PMC5998384:

Key:
HeLa Kyoto [1] = assay: solubility in G1/S (NP-40 vs SDS abundance) (log2 ratio); higher = more soluble; settings: cell cycle stage: G1/S
HeLa Kyoto [2] = assay: melting temperature (median over replicates), in situ; higher = more thermally stable
HeLa Kyoto [3] = assay: solubility change mitosis vs G1/S (difference of NP-40 vs SDS log2 ratios) (log2 ratio difference); higher = more soluble in mitosis
HeLa Kyoto [4] = assay: thermal stability score vs G1/S (z-score of summed log2 fold changes over temperatures); higher = more thermally stable than in G1/S
[5] = cell cycle stage: early G1 (4.5 h after nocodazole release)
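Wherever melting temperature (median over replicates), in situ is given: HeLa Kyoto cells synchronized by double thymidine or nocodazole block, proteins quantified by TMT10plex mass spectrometry, three independent biological replicates.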
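Wherever solubility change mitosis vs G1/S (difference of NP-40 vs SDS log2 ratios) is given: synchronized HeLa Kyoto cells (double thymidine block for G1/S, nocodazole release for mitosis), protein amounts in NP-40 versus SDS lysates quantified by mass spectrometry, three biological replicates.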
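Wherever solubility in G1/S (NP-40 vs SDS abundance) is given: HeLa Kyoto cells arrested at G1/S by double thymidine block, proteins quantified by TMT10plex mass spectrometry in mild NP-40 versus SDS extracts, three biological replicates.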
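Wherever thermal stability score vs G1/S (z-score of summed log2 fold changes over temperatures) is given: synchronized HeLa Kyoto cells, proteins quantified by TMT10plex mass spectrometry, three biological replicates, mitosis taken 0.5 h after nocodazole release, G1/S directly after double thymidine block.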

MATPVVTKTAWKLQEIVAHASNVSSLVLGKASGRLLATGGDDCRVNLWSINKPNCIMSLTGHTSPVESVRLNTPEELIVAGSQSGSIRVWDLEAAKILRTLMGHKANICSLDFHPYGEFVASGSQDTNIKLWDIRRKGCVFRYRGHSQAVRCLRFSPDGKWLASAADDHTVKLWDLTAGKMMSEFPGHTGPVNVVEFHPNEYLLASGSSDRTIRFWDLEKFQVVSCIEGEPGPVRSVLFNPDGCCLYSGCQDSLRVYGWEPERCFDVVLVNWGKVADLAICNDQLIGVAFSQSNVSSYVVDLTRVTRTGTVARDPVQDHRPLAQPLPNPSAPLRRIYERPSTTCSKPQRVKQNSESERRSPSSEDDRDERESRAEIQNAEDYNEIFQPKNSISRTPPRRSEPFPAPPEDDAATAKEAAKPSPAMDVQFPVPNLEVLPRPPVVASTPAPKAEPAIIPATRNEPIGLKASDFLPAVKIPQQAELVDEDAMSQIRKGHDTMCVVLTSRHKNLDTVRAVWTMGDIKTSVDSAVAINDLSVVVDLLNIVNQKASLWKLDLCTTVLPQIEKLLQSKYESYVQTGCTSLKLILQRFLPLITDMLAAPPSVGVDISREERLHKCRLCYKQLKSISGLVKSKSGLSGRHGSTFRELHLLMASLD [KATNB1]
solubility in G1/S (log2) (HeLa Kyoto [1]): -0.135 | melting temperature (HeLa Kyoto [2]; cell cycle stage: G1/S): 50.5 °C | melting temperature (HeLa Kyoto [2]; cell cycle stage: mitosis): 51 °C | solubility change mitosis (log2) (HeLa Kyoto [3]): -0.0538 | thermal stability score (HeLa Kyoto [4]; [5]): 0.62 | thermal stability score (HeLa Kyoto [4]; cell cycle stage: mitosis): 0.499

OLA1
solubility in G1/S (log2) (HeLa Kyoto [1]): 0.346 | melting temperature (HeLa Kyoto [2]; cell cycle stage: G1/S): 51.3 °C | melting temperature (HeLa Kyoto [2]; cell cycle stage: mitosis): 51.2 °C | solubility change mitosis (log2) (HeLa Kyoto [3]): -0.109 | thermal stability score (HeLa Kyoto [4]; [5]): 1.23 | thermal stability score (HeLa Kyoto [4]; cell cycle stage: mitosis): 0.644

MRLRGCGPRAAPASSAGASDARLLAPPGRNPFVHELRLSALQKAQVALMTLTLFPVRLLVAAAMMLLAWPLALVASLGSAEKEPEQPPALWRKVVDFLLKAIMRTMWFAGGFHRVAVKGRQALPTEAAILTLAPHSSYFDAIPVTMTMSSIVMKAESRDIPIWGTLIQYIRPVFVSRSDQDSRRKTVEEIKRRAQSNGKWPQIMIFPEGTCTNRTCLITFKPGAFIPGAPVQPVVLRYPNKLDTITWTWQGPGALEILWLTLCQFHNQVEIEFLPVYSPSEEEKRNPALYASNVRRVMAEALGVSVTDYTFEDCQLALAEGQLRLPADTCLLEFARLVRGLGLKPEKLEKDLDRYSERARMKGGEKIGIAEFAASLEVPVSDLLEDMFSLFDESGSGEVDLRECVVALSVVCRPARTLDTIQLAFKMYGAQEDGSVGEGDLSCILKTALGVAELTVTDLFRAIDQEEKGKITFADFHRFAEMYPAFAEEYLYPDQTHFESCAETSPAPIPNGFCADFSPENSDAGRKPVRKKLD [LPCAT1]
solubility in G1/S (log2) (HeLa Kyoto [1]): -0.209 | melting temperature (HeLa Kyoto [2]; cell cycle stage: G1/S): 52 °C | melting temperature (HeLa Kyoto [2]; cell cycle stage: mitosis): 52.6 °C | solubility change mitosis (log2) (HeLa Kyoto [3]): -0.086 | thermal stability score (HeLa Kyoto [4]; [5]): 2.41 | thermal stability score (HeLa Kyoto [4]; cell cycle stage: mitosis): 3.77

MVSVINTVDTSHEDMIHDAQMDYYGTRLATCSSDRSVKIFDVRNGGQILIADLRGHEGPVWQVAWAHPMYGNILASCSYDRKVIIWREENGTWEKSHEHAGHDSSVNSVCWAPHDYGLILACGSSDGAISLLTYTGEGQWEVKKINNAHTIGCNAVSWAPAVVPGSLIDHPSGQKPNYIKRFASGGCDNLIKLWKEEEDGQWKEEQKLEAHSDWVRDVAWAPSIGLPTSTIASCSQDGRVFIWTCDDASSNTWSPKLLHKFNDVVWHVSWSITANILAVSGGDNKVTLWKESVDGQWVCISDVNKGQGSVSASVTEGQQNEQ [SEC13]
solubility in G1/S (log2) (HeLa Kyoto [1]): -0.204 | melting temperature (HeLa Kyoto [2]; cell cycle stage: G1/S): 50.5 °C | melting temperature (HeLa Kyoto [2]; cell cycle stage: mitosis): 50.4 °C | solubility change mitosis (log2) (HeLa Kyoto [3]): -0.09 | thermal stability score (HeLa Kyoto [4]; [5]): -0.768 | thermal stability score (HeLa Kyoto [4]; cell cycle stage: mitosis): -0.265

MAPSGLKAVVGEKILSGVIRSVKKDGEWKVLIMDHPSMRILSSCCKMSDILAEGITIVEDINKRREPIPSLEAIYLLSPTEKSVQALIKDFQGTPTFTYKAAHIFFTDTCPEPLFSELGRSRLAKVVKTLKEIHLAFLPYEAQVFSLDAPHSTYNLYCPFRAEERTRQLEVLAQQIATLCATLQEYPAIRYRKGPEDTAQLAHAVLAKLNAFKADTPSLGEGPEKTRSQLLIMDRAADPVSPLLHELTFQAMAYDLLDIEQDTYRYETTGLSEAREKAVLLDEDDDLWVELRHMHIADVSKKVTELLRTFCESKRLTTDKANIKDLSQILKKMPQYQKELNKYSTHLHLADDCMKHFKGSVEKLCSVEQDLAMGSDAEGEKIKDSMKLIVPVLLDAAVPAYDKIRVLLLYILLRNGVSEENLAKLIQHANVQAHSSLIRNLEQLGGTVTNPGGSGTSSRLEPRERMEPTYQLSRWTPVIKDVMEDAVEDRLDRNLWPFVSDPAPTASSQAAVSARFGHWHKNKAGIEARAGPRLIVYVMGGVAMSEMRAAYEVTRATEGKWEVLIGSSHILTPTRFLDDLKALDKKLEDIALP [STXBP2]
solubility in G1/S (log2) (HeLa Kyoto [1]): -0.0683 | melting temperature (HeLa Kyoto [2]; cell cycle stage: G1/S): 49.3 °C | melting temperature (HeLa Kyoto [2]; cell cycle stage: mitosis): 49.2 °C | solubility change mitosis (log2) (HeLa Kyoto [3]): -0.19 | thermal stability score (HeLa Kyoto [4]; [5]): 0.25 | thermal stability score (HeLa Kyoto [4]; cell cycle stage: mitosis): 1.22
